In paper PMC10714721 one finds stoichiometry N data, which are given here for 1 substance.

The experiment deals with histidine-tagged VfmH (Dickeya dadantii). The experiment is described as follows: not stated; oligomerization pattern of VfmH with or without c-di-GMP or ATP (Fig. S5); method not given.

Where “and” joins values, the source holds several entries; their conditions need not be identical. Equal values may be shown once.

As to histidine-tagged VfmH (natural protein), the stoichiometry N (in general, a count of units in the complex or per binding partner) was 6 and 2 and 3.
